We go through three substances from PMC7801515.

“And” between values parts separate entries of the source, which are not always exact repeats. Equal values may be shown once. Read-outs that look alike come from different tables or passages of the source.

Common to all, as to experiment: SPR
(SPR reads the build-up and loss of mass on a sensor chip optically.)

Test [1] addresses P2B-2F6 monoclonal antibody (human).
For test [2], the target named is SARS-CoV-2 receptor-binding domain (RBD), residues Arg319 to Lys529 (SARS-CoV-2) (UniProt P0DTC2).
The target is the same in test [3]. The source holds these as a separate data set.

“SARS-CoV-2 receptor-binding domain (RBD), residues Arg319 to Lys529 (from UniProt P0DTC2 319-529) (domain or fragment)” yielded a dissociation constant (Kd) in test [1] of 15.6 nM.
Consider P2B-2F6 monoclonal antibody, for which, in test [2], the dissociation constant (Kd) was 19 nM and 13.8 nM and 14.1 nM; the dissociation rate constant (koff) was 0.102 s⁻¹ and 0.0911 s⁻¹.
In the case of P2C-1F11 monoclonal antibody, in test [2], the Kd turned out to be 2.4 nM. For the same substance, in test [3], the dissociation constant (Kd) was 1.1 nM and 2.67 nM and 1.38 nM; the dissociation rate constant (koff) was 0.00263 s⁻¹ and 0.00303 s⁻¹ and 0.00213 s⁻¹.

By Kd is commonly meant the equilibrium constant for the complex coming apart. Lower therefore signals tighter binding. As a reminder, the koff is the first-order rate constant of dissociation. Low values mean a long-lived complex, high ones a short-lived complex.
